Patent publication US8697416B2, “Recombinant polynucleotide, host cells containing the same and a process for producing a protein having aldolase activity” (Ajinomoto Co., Inc., priority 2002, dated 2014)
Where two headings read alike, the source gives them in different places.

B1: PcALD: aldolase derived from Pseudomonas coronafaciens strain AJ2791, amino acid sequence SEQ ID No: 16; recombinant, purified in Example 5 (protein, listed as Pseudomonas coronafaciens)
chain: MKCHSVIWFSAWPHPIISREKSHMTIGFRVLSAARKVSPEWVARYRDVPVANVSDSMNRMTAGGSRLRPMHRAGVLAGPALTVKARPGDNLMLHYAIDIAQPGDVIVVDAGGDLTNALIGEMMVAYAVKRGVAGIVINGAIRDAASIGAGDFPMFAAGVSHRGPYKDGPGEINVPIAIDGMVIEAGDLVIGDDDGLLCVPYDQVAEVYDRAAAKHHAEQKQLEQIAKGENDRSWVLESLKKKGCQLPE
B2: PtALD: aldolase derived from Pseudomonas taetrolens ATCC4683, amino acid sequence SEQ ID No: 2 or 3; recombinant, purified in Example 4 (protein, listed as Pseudomonas taetrolens)
chain: MEVAMSLPGSRIYPSPPQAPRSLLDAFQNVVTPHISDNLGRHIGARGLTRYNHTGKLVGTALTVKTRPGDNLYIYKALTLIEPGHVLVIDAQGDATNAVIGELIKLYAQQRGCVGFVVDGAIRDVASFEDTPCYARSVVHCGPYKSGPGEINVPVSIGGMIINPGDIIVGDEDGLVAFSPDHAEQVLVKAREHDAHEQQVKAEIATGAIDQSWLDKVLEKAGLAN

Tests used:
[1] = Synthesis of IHOG from indole-3-pyruvic acid and pyruvic acid using purified PtALD and PcALD; format: biochemical; conditions: PtALD 1.8 U/ml, PcALD 0.8 U/ml, pH 8.5, 33° C., 4 hours
Experimental: 4-(Indol-3-ylmethyl)-4-hydroxy-2-oxoglutarate (IHOG) was synthesized from indole-3-pyruvic acid and pyruvic acid using the PtALD and PcALD produced in Examples 4 and 5 as enzyme sources. The amount of IHOG was determined by HPLC analysis using the “Inertsil ODS-2” (GL Sciences Inc., 5 μm, 4.6×250 mm). The analysis conditions are as indicated below.
Mobile phase: 40% (v/v) acetonitrile/5 mM tetrabutyl
ammonium dihydrogen phosphate solution
Column temperature: 40° C.
PtALD and PcALD were added at 1.8 U/ml and 0.8 U/ml, respectively, to a reaction solution comprised of 100 mM Hepes-KOH (pH 8.5), 50 mM indole-3-pyruvic acid, 250 mM pyruvic acid and 1 mM to 5 mM MgCl2, and allowed to react at 33° C. for 4 hours. The enzyme reaction solution was suitably diluted and the amount of IHOG formed was quantified. As a result, IHOG was able to be formed from the aldolases.

[2] = Aldol condensation activity of pyruvic acid for various substrates using PtALD (ESI-MS); format: biochemical; conditions: 50 mM substrate, 250 mM sodium pyruvate, 0.1 mg/ml PtALD, pH 9, 33° C., 2 hours; substrates of Tables 11 and 12
Experimental: The aldol condensation activity of pyruvic acid was measured for the various substrates shown in Table 11 using the PtALD produced in Example 4. A reaction solution was prepared composed of 100 mM glycine-NaOH (pH 9), 50 mM substrate, 250 mM sodium pyruvate, 1 mM MgCl2 and 0.1 mg/ml PtALD, and incubated at 33° C. for 2 hours. The resulting reaction solution was subjected to ultrafiltration with an ultrafiltration membrane, Microcon 10 (Amicon) for a fraction molecular weight of 10000. 2 μl of the filtrate was diluted in 200 μl of 50% acetonitrile/0.1% aqueous ammonia solution followed by ESI-MS analysis.

[3] = Enzymatic properties of PtALD: kinetics constants when using PHOG as substrate; format: biochemical
Experimental: Basic reaction conditions: 50 mM Hepes-KOH (pH 8.0), 2 mM PHOG, 5 mM MgCl2, 3 mM KPB (pH 8), 16 U/ml of lactate dehydrogenase, measure a optical absorbance at 340 nm measured at 30° C.
The aldolase activity increased by 2.7 times as compared with a non-addition lot following addition of 1 mM MgCl2, and increased 2 times as compared with a non-addition lot following addition of 5 mM KPB.

[4] = Optimum pH of PtALD aldolase activity; format: biochemical; conditions: at 33° C.
Experimental: More specifically, aldolase activity may be estimated according to the following steps of adding aldolase to a reaction solution composed of 100 mM buffer, 50 mM indole-3-pyruvic acid, 250 mM pyruvic acid, 1 mM MgCl2 and 1% (v/v) toluene; and shaking while reaction at 33° C. for 4 hours; and then quantifying the amount of IHOG formed by HPLC.

[5] = pH stability of PtALD (residual activity); format: physicochemical; conditions: 37° C., 30 minutes, 100 mM buffers
Experimental: pH stability was measured over a range of pH 3 to pH 11. The buffers used for measurement were as follows: sodium acetate buffer (pH 3, 4, 5, 6), potassium phosphate buffer (pH 6, 6.5, 7, 7.5), Tris-HCl buffer (pH 7, 7.5, 8, 8.5), glycine-NaOH buffer (pH 9, 9.5, 10), CAPS-NaOH buffer (pH 10, 10.5, 11). The residual activity after incubating PtALD at 37° C. for 30 minutes in each of the buffer solutions at a concentration of 100 mM was measured under the basic reaction conditions.

[6] = Temperature stability of PtALD (residual activity); format: physicochemical; conditions: 30 minutes incubation, pH 7.0 and pH 9.0
Experimental: Residual activity was measured under the basic measurement conditions after incubating PtALD at 25 to 70° C. for 30 minutes in 100 mM potassium phosphate buffer (pH 7.0) and 100 mM glycine-NaOH buffer (pH 9.0).

[7] = Aldol condensation activity of PtALD using acetaldehyde and α-ketobutyrate (ESI-MS); format: biochemical; conditions: 50 mM acetoaldehyde, 250 mM α-ketobutyrate, 0.1 mg/ml PtALD, pH 9, 33° C., 16 hours
Experimental: The aldol condensation activity of the PtALD prepared in Example 4 was measured using acetaldehyde and α-ketobutyrate. A reaction solution composed of 100 mM glycine-NaOH (pH 9), 50 mM acetoaldehyde, 250 mM α-ketobutyrate, 1 mM MgCl2 and 0.1 mg/ml PtALD was prepared, and it was incubated at 33° C. for 16 hours. The resulting reaction solution was subjected to ultrafiltration with an ultrafiltration membrane, Microcon 10 (Amicon) for a fraction molecular weight of 10000. 10 μl of the filtrate was diluted in 200 μl of 50% acetonitrile/0.1% aqueous ammonia solution followed by ESI-MS analysis.

Molecule	IHOG formed ([1]; MgCl2 1 mM) [mM]	IHOG formed ([1]; MgCl2 5 mM) [mM]	Formation of pyruvic acid aldol condensates for various substrates [2]	Increase of aldolase activity as compared with a non-addition lot ([3]; addition of 1 mM MgCl2) [times]	Increase of aldolase activity as compared with a non-addition lot ([3]; addition of 5 mM KPB) [times]	Ka (for KPi) ([3]; pH 8.0, 30° C.) [mM]	Vmax (for PHOG) ([3]; pH 8.0, 30° C.) [µmol/min/mg]	Km ([3]; pH 8.0, 30° C., read-out: Km (for MgCl2)) [µM]	Km ([3]; pH 8.0, 30° C., read-out: Km (for PHOG)) [µM]	optimum pH [4]	pH stability (pH) [5]	temperature stability [6] [°C]	Formation of aldol condensate from acetaldehyde and α-ketobutyrate [7]
B1	4.9	5.4											
B2	11.4	10.5	the desired pyruvic acid aldol condensates were formed	2.7	2	0.95	91.7	19	100	about 9	≥ 6	≤ 70	formation of the desired aldol condensate
